Experiment [1] has as its target T1, PDGF BB (Homo sapiens (Human), UniProt P01127). Nature of the experiment: solid-phase plate assay, displacement of bound 125I-PDGF BB by unlabeled PDGF BB. As for the experimental part:
(§1) This fraction was then applied to Sephacryl S-200 HR (Pharmacia) equilibrated in 0.15M ammonium bicarbonate pH 7.9. The fractions containing receptor (3–10 ng/μl) were detected by SDS-PAGE and Western blotting with a polyclonal rabbit antibody, made by standard methods, against a Domain 1 (D1) segment from the receptor external region. These fractions (3–10 ng/μl) were used to coat the microtiter wells as described above. The wells were then drained, rinsed once with 200 μl each of 0.5% gelatin (BioRad, EIA grade), 25 mM Hepes, 100 mM NaCl, pH 7.4, and incubated for 1–2 h at 24° C. with 150 μl of this same solution. The wells were drained and rinsed twice with 0.3% gelatin, 25 mM Hepes, 100 mM NaCl, pH 7.4 (150 μl each). […] The bound radioactivity remaining was solubilized from the wells in 200 μl 1% SDS, 0.5% BSA, and counted in a gamma-counter. The nonspecific binding was determined in the presence of a 150-fold excess of unlabeled PDGF BB (Amgen) and was about 7% of the total bound ^125I-PDGF.
(§2) Using iodinated PDGF-BB, the specific binding of less than 10 pg of ligand can be detected in an assay volume of […]. […] The nonspecific binding, determined in the presence of a […] of cold PDGF BB, was usually only about 5–10% of the total binding.

In experiment [2] the target is T1, PDGF BB. Nature of the experiment: solid-phase plate assay, 125I-PDGF BB bound after 4 h at 4° C., dissociation in buffer. As for the experimental part: as §1, §2
In experiment [3] the target is T1, PDGF BB. Nature of the experiment: competition: soluble receptor fragment against its immobilized form for binding 125I-PDGF BB. The method, then: as §1, §2
In experiment [4] the target is T1, PDGF BB. Nature of the experiment: solid-phase plate assay at 4° C., 125I-PDGF BB on the receptor fragment coated on polystyrene wells, Scatchard analysis. The method, then:
as §1, §2

B1: extracellular region fragment of the type B human PDGF receptor (soluble, PΔ1 construct, D1-D2-D3-D4-D5) (receptor)
chain: LVVTPPGPELVLNVSSTFVLTCSGSAPVVWERMSQEPPQEMAKAQDGTFSSVLTLTNLTGLDTGEYFCTHNDSRGLETDERKRLYIFVPDPTVGFLPNDAEELFIFLTEITEITIPCRVTDPQLVVTLHEKKGDVALPVPYDHQRGFSGIFEDRSYICKTTIGDREVDSDAYYVYRLQVSSINVSVNAVQTVVRQGENITLMCIVIGNDVVNFEWTYPRKESGRLVEPVTDFLLDMPYHIRSILHIPSAELEDSGTYTCNVTESVNDHQDEKAINITVVESGYVRLLGEVGTLQFAELHRSRTLQVVFEAYPPPTVLWFKDNRTLGDSSAGEIALSTRNVSETRYVSELTLVRVKVAEAGHYTMRAFHEDAEVQLSFQLQINVPVRVLELSESHPDSGEQTVRCRGRGMPQPNIIWSACRDLKRCPRELPPTLLGNSSEEESQLETNVTYWEEEQEFEVVSTLRLQH
In the case of B1, the “t1/2 of displacement by 150-fold excess of unlabeled PDGF BB” value with PDGF BB [1] was less than 1 h. In the experiment with PDGF BB [2], the “t1/2 of dissociation in binding buffer” value is more than 6 h. Besides, in the experiment with PDGF BB [3], the IC50 (in general, the concentration that inhibits the measured activity by half) stood at 5 nM. Besides, in the experiment with PDGF BB [4], the Kd (usually a measure of binding affinity in units of concentration) is approximately 1 nM.

The record behind these values is US5686572, “Domains of extracellular region of human platelet derived growth factor receptor polypeptides” (Cor Therapeutics, Inc., dated 1997).
